Data taken from paper PMC9213253 (The Journal of Biological Chemistry, 2022).

Key:
AstC (ACIAD1284) = AstC (ACIAD1284) (Acinetobacter baylyi, UniProt Q6FCQ2); conditions: 10 mM DAP; 5 mM 2-oxoglutarate; 200 μM PLP; 200 μM NAD+; pH 9.0; 25 °C
Dat (ACIAD1210) = Dat (ACIAD1210) (Acinetobacter baylyi, UniProt Q6FCX2); conditions: 10 mM DAP; 5 mM 2-oxoglutarate; 200 μM PLP; 200 μM NAD+; pH 9.0; 25 °C
purified protein [1] = substrate: NCCCC(=O)O; assay: purified protein; conditions: 500 μM 2-oxoglutarate, 200 μM PLP, 5 mM NAD+, pH 9.0, 25 °C
purified protein [2] = substrate: NCCCN; assay: purified protein; conditions: 200 μM PLP
purified protein [3] = substrate: O=C(O)CCC(=O)C(=O)O; assay: purified protein; conditions: 4 mM GABA, 200 μM PLP, 5 mM NAD+, pH 9.0, 25 °C
purified protein [4] = substrate: NCCC=O; assay: purified protein; conditions: pH 9.0, 25 °C
purified protein [5] = substrate: NC(=O)c1ccc[n+]([C@@H]2O[C@H](COP(=O)(O)OP(=O)(O)OC[C@H]3O[C@@H](n4cnc5c(N)ncnc54)[C@H](O)[C@@H]3O)[C@@H](O)[C@H]2O)c1; assay: purified protein; conditions: pH 9.0, 25 °C, varied: cofactor
purified protein [6] = substrate: NCC[C@H](N)C(=O)O; assay: purified protein; type: biochemical, Acinetobacter baylyi; conditions: 100 mM Tris-HCl pH 8.5, 200 μM PLP, 2.5 mM CaCl2, 25 °C
purified protein [7] = substrate: NC(=O)c1ccc[n+]([C@@H]2O[C@H](COP(=O)(O)OP(=O)(O)OC[C@H]3O[C@@H](n4cnc5c(N)ncnc54)[C@H](OP(=O)(O)O)[C@@H]3O)[C@@H](O)[C@H]2O)c1; assay: purified protein; conditions: pH 9.0, 25 °C, varied: cofactor
[8] = 500 μM 2-oxoglutarate, 5 mM NAD+, pH 9.0, 25 °C
[9] = 1 mM NAD+, BetB, 2.5 mM CaCl2, pH 9.0, 25 °C

AstC (ACIAD1284), sequence (Q6FCQ2 1-403): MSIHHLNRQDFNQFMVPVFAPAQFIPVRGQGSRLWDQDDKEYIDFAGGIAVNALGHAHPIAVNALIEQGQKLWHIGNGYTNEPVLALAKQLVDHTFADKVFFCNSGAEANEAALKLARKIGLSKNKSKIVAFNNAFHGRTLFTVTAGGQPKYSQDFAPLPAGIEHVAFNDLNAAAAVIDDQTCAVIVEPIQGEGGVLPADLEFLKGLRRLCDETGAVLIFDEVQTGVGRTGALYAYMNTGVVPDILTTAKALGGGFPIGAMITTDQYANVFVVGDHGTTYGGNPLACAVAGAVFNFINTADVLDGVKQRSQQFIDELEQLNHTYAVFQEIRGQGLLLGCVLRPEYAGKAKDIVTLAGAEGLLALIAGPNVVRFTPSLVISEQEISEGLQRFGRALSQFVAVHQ
Dat (ACIAD1210), sequence (Q6FCX2 1-456): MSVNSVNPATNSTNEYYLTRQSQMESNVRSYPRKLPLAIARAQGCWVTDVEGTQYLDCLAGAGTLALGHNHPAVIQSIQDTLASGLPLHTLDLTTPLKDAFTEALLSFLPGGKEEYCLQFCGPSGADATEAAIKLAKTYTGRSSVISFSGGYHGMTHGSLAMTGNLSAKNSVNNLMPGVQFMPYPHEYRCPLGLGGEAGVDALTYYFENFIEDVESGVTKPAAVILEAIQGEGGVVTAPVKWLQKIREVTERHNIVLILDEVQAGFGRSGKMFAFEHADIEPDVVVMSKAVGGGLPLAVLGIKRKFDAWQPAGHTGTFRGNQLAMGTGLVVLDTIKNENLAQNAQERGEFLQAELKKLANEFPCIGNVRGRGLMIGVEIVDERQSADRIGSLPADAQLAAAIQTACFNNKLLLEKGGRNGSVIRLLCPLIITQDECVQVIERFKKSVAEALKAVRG

Molecule: NCCCN [DAP]
- BetB-coupled assay, NADH at 340 nm (aminotransferase) (AstC (ACIAD1284)): activity of AstC and Dat was too low to determine their kinetic parameters
- BetB-coupled assay, NADH at 340 nm (aminotransferase) (Dat (ACIAD1210)): activity of AstC and Dat was too low to determine their kinetic parameters

B1: GabT (ACIAD3446) (Acinetobacter baylyi ADP1) (protein)
chain: MDTKHSALNQRKQQATPRGVGVMCQWYADKAENATIWDAEGNTYIDFAGGIAVLNTGHRHPKVLAAVKAQLERFTHTAYQVTPYESYVALAERINELAPIAGPAKTTFFTTGAEAVENAVKIARCYTGRQGIITFGNGFHGRSFMTMAMTGKTAPYKRDFGLMPGGVFHARYPVESRGISVDDALESIENIFSEDVAPHDVAAIVLEPVQGEGGFNVVPADFLKRLRALCDKHGILLVADEVQTGFARTGKLYAMDHYETKADLITMAKSLGGGFPISGVVGRAEVMDAPNPGGLGGTYAGNPVAVAAAHAVIDAIQEEKLCERANELGAELVHVLKGLQQSTDQVITDIRALGSMVAAEFETAEQAKAVQNYAMQNGLLLLTCGKYGNVIRFLYPLTIPVEQFRSGLDILKQGVASLATDHTTQAIG
- Km (purified protein [1]): 399 ± 40 µM
- kcat (purified protein [1]): 0.48 ± 0.021 s⁻¹
- kcat/Km (purified protein [1]): 1200 M⁻¹ s⁻¹
- Km (purified protein [2]; [8]): 4356 ± 1014 µM
- kcat (purified protein [2]; [8]): 0.22 s⁻¹
- kcat/Km (purified protein [2]; [8]): 51 M⁻¹ s⁻¹
- Km (purified protein [3]): 58 ± 7 µM
- kcat/Km (purified protein [3]): 8300 M⁻¹ s⁻¹

B2: AcoD (ACIAD2018) (Acinetobacter baylyi ADP1) (protein)
chain: MRYIDPNQPGSKVQFKAQYENFIGGQWVPPVKGEYFGNSSPVDGKVFTQIPRSSVEDIELALDAAHKAKADWNKASPTVRSNVLLKIADRLEENLELLAVAETWENGKPIRETLAADIPLAIDHFRYFAGCIRAQEGGISEIDEDTIAYHFHEPLGVVGQIIPWNFPILMAAWKLAPALAAGNCIVLKPAEQTPSSILVLAELIQDLLPPGVLNIVNGYGAEVGRPLATNPRISKIAFTGSTKVGQMIMQYATENIIPVTLELGGKSPNIFFEDILDKEDDYLEKTLEGFAMFALNQGEVCTCPSRALVQESIADKFLEMAVERVKRIKTGHPLDTETMIGAQASKQQFDKILGCIDTGRNEGAQLLTGGDARHDVDGGFYIEPTIFKGNNSMKIFQEEIFGPVLSVTTFKDFDDAMRIANDTIYGLGAGVWSRSAHTSYRAGRAIEAGRVWTNCYHLYPAHAAFGGYKQSGIGRENHRMMLDHYQQTKNLLVSYSTKPMGFF
- Km (purified protein [4]; 2 mM NAD+): 3559 ± 755 µM
- kcat (purified protein [4]; 2 mM NAD+): 1.55 ± 0.35 s⁻¹
- kcat/Km (purified protein [4]; 2 mM NAD+): 440 M⁻¹ s⁻¹
- Km (purified protein [5]; 20 mM 3AP): 124 ± 49 µM
- kcat/Km (purified protein [5]; 20 mM 3AP): 13000 M⁻¹ s⁻¹

B3: Ddc (ACIAD1211) (Acinetobacter baylyi ADP1) (protein)
chain: MVDFAEHRKALLCNDAASIAEYQSAMDEAVKAVAAWLQNDKMYTGGSIKELRSAIAFNPSKEGLGLHQSLGRMVELFLNKSLKVHHPYSLAHLHCPTMVTSQIAEVLINATNQSMDSWDQSPAGSLMEVQLIDWLRQKVGYGVGQAGVFTSGGTQSNLMGVLLARDWAIAKNFTDENGQPWSVQRDGIPAEAMRNIKVICSENAHFSVQKNMAMMGMGFQSVVTVPVNENAQMDVDALEKTMSHLQSEGKIVACVVATAGTTDAGAIDPLKKIREITTKYGAWMHIDAAWGGALILSNDYRDMLDGIELSDSITLDFHKHYFQSISCGAFLLKDEANYRFMHYEAEYLNSAYDEEHGVPNLVSKSLQTTRRFDALKLWMTVEALGEELYGSMIDHGVKLTREVADYIKATEGLELLVEPQFASVLFRVVPDGYPVELIDTLNQNVADELFARGDANIGVTKVGAVQSLKMTTLSPVATLENVKGLLAMVLAESDRIKDSIAAGTYVPAID
- Km (purified protein [6]): 1585 ± 257 µM
- kcat (purified protein [6]): 12.1 ± 1.1 s⁻¹
- kcat/Km (purified protein [6]): 7600 M⁻¹ s⁻¹
- Km (purified protein [2]; [9]): 710 ± 113 µM
- kcat (purified protein [2]; [9]): 0.009 s⁻¹
- kcat/Km (purified protein [2]; [9]): 13 M⁻¹ s⁻¹

B4: BetB (ACIAD1009) (Acinetobacter baylyi ADP1) (protein)
chain: MSDVKLHRLYIHGQYTDATSGKTFDSINPATGEVIATIQQASQTDIEAAVKSAAEGQKVWAAKTAVERSRILRRAVDILRERNDELAQLETLDTGKAFSETSTVDIVTGADVLEYYAGLATAIQGEQVPLRESSFFYTRREPLGVVAGIGAWNYPIQIALWKSAPALAAGNAMIFKPSEVTPLTAFKLAEIYSEAGLPAGVFNVVQGAGREIGQWLTEHAVIEKISFTGGVETGKKVMASAAGSTLKEVTMELGGKSPLIICEDANLDRAADIAVMANFFSSGQVCTNGTRVFIPQRLKAAFEQAVVERVKRIRMGDPQHTDTNFGPLVSFPHMEKVLSYIESGKQQGAKVLIGGERATTGLLAQGAYVQPTVFTDCHDDMKIVQEEIFGPVMSILTYDTIEEAIERANNTNFGLAAGVVTQNISQAHQIIHQLEAGICWINTWGESPAEMPVGGYKESGVGRENGISTLNHYTRTKSIQVELGDYQSVF
- Km (purified protein [4]; 2 mM NAD+): 82 ± 17 µM
- kcat (purified protein [4]; 2 mM NAD+): 1.48 ± 0.16 s⁻¹
- kcat/Km (purified protein [4]; 2 mM NAD+): 18000 M⁻¹ s⁻¹
- Km (purified protein [7]; 2.5 mM 3AP): 339 ± 67 µM
- kcat (purified protein [7]; 2.5 mM 3AP): 2.43 ± 0.12 s⁻¹
- kcat/Km (purified protein [7]; 2.5 mM 3AP): 7200 M⁻¹ s⁻¹
- Km (purified protein [5]; 2.5 mM 3AP): 20 ± 4 µM
- kcat/Km (purified protein [5]; 2.5 mM 3AP): 74000 M⁻¹ s⁻¹

B5: AdhA (ACIAD3339) (Acinetobacter baylyi ADP1) (protein)
chain: MGSLMKAAVVTAFNQPLEIKDVEIPKVTSGKVLVKMIATGVCHTDLHAMHGDWPIKPSLPFIPGHEGVGEVVEIGEGITHLKIGDTVGVPWLYSACGHCDHCYAGWETLCKQQQNSGYSVNGSFAEYCLADGEYVGVIPEGVDLLEIAPILCAGVTVYKGLKMTEAKTGDWVAISGIGGLGHVAVQYAKTMGFNVVAIDVDDSKLELAKQLGADVGINALKVDVKEEVLKATGEGCHGVLVTAVSPKAFEQAVSVVRRGGTMVLNGLPPGKFDLSIFDMVLDGITVRGSIVGTRLDLKEALDIAARGKVKAHISVEPLENINDIFERMEQGKIDGRIVIDLKL
- Km (purified protein [4]; 9 mM NAD+): 141 ± 28 µM
- Km (purified protein [5]; 2 mM 3AP): 1803 ± 305 µM
- kcat/Km (purified protein [5]; 2 mM 3AP): 520 M⁻¹ s⁻¹

B6: GabD-like (ACIAD0960) (Acinetobacter baylyi ADP1) (protein)
chain: MAYATVNPYTGETLKEFPFATEQEVKAAIDAGYTAFTTWKDSSFATRAEVLNKAAKILRDKTDYYAKFLTLEMGKLFKEAQGEVEICAQIFEYYAKHAEELLAPTKLSTANKEINATIYYEPQGIVMAVEPWNFPFYQIARILSAQLAAGNTVILKHASIVPQSANAFEQLLLDAGLPQGAFKNLYMQHEHIPLVLNDHRVCGVALTGSEGAGAEVAAHAGKALKKSTLELGGSDAFIVLKDADLEKTAQLAVSGRHSNAGQVCTASKRFIVVDEVYDQFVELYKQGVAKLKAGDPMDPDTTLAPLCSQDAADQLKKQVEKAKAAGATVEAIGAPVPEQGAFFQPLLMTDIQEDNEARYWEFFGPVTQLYRAKDEADAIRIANDSPFGLGGSVYTADHARGVEVAKQIHTGMVYINHPTTSQADLPFGGVGRSGYGRELIDLGLKEFVNHKLIAITDIDAKL
- Km (purified protein [7]; 15 mM 3AP): 3718 ± 1138 µM
- kcat/Km (purified protein [7]; 15 mM 3AP): 1000 M⁻¹ s⁻¹
- Km (purified protein [5]; 15 mM 3AP): 4507 ± 363 µM
- kcat (purified protein [5]; 15 mM 3AP): 1.68 ± 0.04 s⁻¹
- kcat/Km (purified protein [5]; 15 mM 3AP): 370 M⁻¹ s⁻¹
